Data set [1] concerns the target PITG_04701 HSF (Phytophthora infestans, UniProt D0N1U7 1-190). Nature of the data set: EMSA. Conditions: protein: recombinant, tags: 6xHis, GST (N- or C-terminal, per PBM vectors), chain copies: 3, blunt. In general terms: A gel shift assay detects complexes by their altered migration in electrophoresis.
Data set [2] deals with PITG_08807 2R-Myb (Phytophthora infestans, UniProt D0ND89 1-188). Nature of the data set: EMSA; self-competition with unlabeled DNA. Conditions: protein: recombinant; tags: 6xHis; GST (N- or C-terminal, per PBM vectors); label: Cy5 (probe); blunt.

This note sets out measurements from publication PMC11267843, “Transcription factor binding specificities of the oomycete Phytophthora infestans reflect conserved and divergent evolutionary patterns and predict function”.

B1: HSF three-site (dsDNA)
DNA 1: TAAATATAGCACGCGAATATTCTAGAAACTGCAGCACAACA
DNA 2: TGTTGTGCTGCAGTTTCTAGAATATTCGCGTGCTATATTTA
For B1, the binding result in data set [1] (label: Cy5) was “binds”.

B2: HSF two-site (wild-type motif) (dsDNA)
DNA 1: TAAATATAGCACGCTTCTAGAAACTGCAGCACAACA
DNA 2: TGTTGTGCTGCAGTTTCTAGAAGCGTGCTATATTTA
Regarding B2, the binding result in data set [1] (label: Cy5 (probe)) was “binds”.

B3: Myb wild-type motif (dsDNA)
DNA 1: CTACACTATCATTCTCCGTTACGTCCTACTGTATTGG
DNA 2: CCAATACAGTAGGACGTAACGGAGAATGATAGTGTAG
With B3, the binding result in data set [2] is reported as “binds”.
